In paper PMC7793260 one finds EfA (acceptor FRET efficiency) data, which are given here for three substances.

The target in assay [1] is mKO-^MalFNTPBP2 (E. coli). The assay is described as follows: FRET or BRET; three-plasmid FRET in LMC500 cells; third plasmid expresses non-fused MreC.
The target of assay [2] is mKO-^MalFNTPBP2 (E. coli). The assay is described as follows: FRET or BRET; two-plasmid spectral FRET in E. coli LMC500 cells; mCherry fusion as acceptor, mKO fusion as donor; Gb4 medium, steady state at 28 C, 15 uM IPTG for two mass doublings, FAGA-fixed; acceptor FRET efficiency (EfA) by spectral unmixing.
Assay [3] deals with mKO-^MalFNTPBP2 (E. coli). The assay is described as follows: FRET or BRET; three-plasmid FRET in LMC500 cells; third plasmid: empty pSG4K5 vector.
Assay [4] deals with mKO-^MalFNTPBP2 (E. coli). The assay is described as follows: FRET or BRET; three-plasmid FRET in LMC500 cells; third plasmid expresses non-fused MreCD.
The target in assay [5] is mKO-^MalFNTPBP2 (E. coli). The assay is described as follows: FRET or BRET; as the two-plasmid FRET, cells treated with mecillinam (2 mg/L) for two mass doublings.
Assay [6] deals with mKO-^MalFNTPBP2 (E. coli). The assay is described as follows: FRET or BRET; two-plasmid FRET in LMC500 cells; mCherry-MreC and non-fused MreD co-expressed from one plasmid (mCh-MreCD), mKO fusion as donor.

On to “RodA (wild type), fused to mCherry or to mKO (from UniProt P0ABG7 1-370) (enzyme)”, for which the EfA (acceptor FRET efficiency) in assay [1] is 4.2%; in assay [2], 11.8%; in assay [3], 7.6%; in assay [4] it was 5.5%; in assay [5], 6.2%.
With “PBP2 (wild type), fused to mKO or to mCherry (from UniProt P0AD65 1-633) (enzyme)”, the EfA (acceptor FRET efficiency) in assay [1] came to 9.8%; in assay [2], 10.5%; in assay [3] it was 9.4%; in assay [4] it was 8.7%.
“mCh-MreC (from UniProt P16926 1-367) (natural protein)”: the EfA (acceptor FRET efficiency) in assay [6] and in assay [2] was 5.4% throughout.
